Assay results as given in paper PMC4980431, “Ctf4 Is a Hub in the Eukaryotic Replisome that Links Multiple CIP-Box Proteins to the CMG Helicase” (Molecular Cell, 2016).
Changes are numbered by the printed parent chain. In names and notes the source's numbering stands. Where a SMILES comes first, the peptide text is derived from it.

Key:
Ctf4 = assay: Co-purification with Ctf4 from yeast cell extracts; type: cell-based, budding yeast; conditions: extracts of yeast cells; S phase and G1-phase; immunoblotting
Description: Figure 3 Interaction of the Type I CIP-Box Protein Dna2 with Ctf4 Is Important for rDNA Maintenance (A) GAL-DNA2-9MYC CTF4-TAP (YFV22) and GAL-DNA2-9MYC control cells (YFV21) were grown at 30°C in rich medium containing 2% galactose and then treated as in Figure 2D. The Ctf4-TAP was isolated from cell extracts on magnetic beads coupled to IgG. (B) The smallest fragment of Dna2 that interacted with Ctf4 461–927 in the two-hybrid screen (120–456 shown in red) contains a Ctf4-interacting peptide or CIP-box, closely related to those of Sld5 and Pol1 (upper). […] (C) Mutations in the CIP-box of Dna2 abolished the interaction of full-length Dna2 (1–1,522) or Dna2 120–456 to interact with Ctf4 461–927. (D) When soaked into crystals of Ctf4 471–927, the Dna2 CIP-box binds to the helical region of Ctf4, as previously observed for the CIP-boxes of Pol1 and Sld5 ([Simon et al., 2014]). […]
Figure 4 Tof2 and Dpb2 Define a New Class of Type II CIP-Box Proteins that Bind to a Novel Binding Pocket on the Surface of Ctf4 (A) The smallest fragments of Dpb2 and Tof2 that interacted with Ctf4 461–927 in the two-hybrid screen (shown in red) were each found to contain a putative CIP-box with limited homology to the type I CIP-boxes of Sld5, Dna2, and Pol1. […] The indicated proteins were monitored by immunoblotting. […]

[1] = test system: budding yeast cells (W303 background); assay: Yeast growth in the presence of hydroxyurea; type: cell-based
Description: (§1) Yeast growth, two-hybrid analysis, and immunoprecipitation experiments were performed as described in detail previously ([Maculins et al., 2015], [Maric et al., 2014]). A two-hybrid screen against amino acids 461–927 of Ctf4 was performed by the company Hybrigenics.

Ctf4 471-927 (Ctf4CTD) = molecular target: T1, Ctf4 471-927 (Ctf4CTD) (Saccharomyces cerevisiae, UniProt Q01454); assay: Fluorescence anisotropy, peptide binding to Ctf4 471-927; set-up: species or system budding yeast; conditions: legend of Figure S3C; 50 nM fluorescein-labeled Dna2 peptide, pH 7.2, 25°C; mean of three independent experiments
T1 sequence (Q01454 471-927): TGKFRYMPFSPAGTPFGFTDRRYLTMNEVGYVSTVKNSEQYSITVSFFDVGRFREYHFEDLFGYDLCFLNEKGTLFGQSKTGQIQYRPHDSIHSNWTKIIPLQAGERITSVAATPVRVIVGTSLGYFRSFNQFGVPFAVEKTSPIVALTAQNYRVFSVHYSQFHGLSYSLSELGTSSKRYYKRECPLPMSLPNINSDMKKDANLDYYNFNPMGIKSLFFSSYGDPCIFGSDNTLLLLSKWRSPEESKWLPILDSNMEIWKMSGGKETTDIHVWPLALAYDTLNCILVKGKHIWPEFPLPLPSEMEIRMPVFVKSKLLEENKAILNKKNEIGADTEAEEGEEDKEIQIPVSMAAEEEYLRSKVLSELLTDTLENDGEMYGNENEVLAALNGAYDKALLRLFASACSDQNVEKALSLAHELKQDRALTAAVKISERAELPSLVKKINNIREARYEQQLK
Description: The lowest concentration of peptide at which the binding studies could be performed was determined via peptide calibration curves. Fluorescence anisotropy measurements were recorded in a PHERAstar Plus multi-detection plate reader (BMG Labtech) equipped with fluorescence polarization optic module (λex = 485 nm; λem = 520 nm) at 25°C. Each data point is the mean of 200 flashes/well. The voltage gain was set by adjusting the target mP values of fluorescein-labeled peptides relative to that of fluorescein (35 mP). Serial dilutions of Ctf4CTD were made in 20 mM HEPES (pH 7.2), 140 mM KCl, and 5% (w/v) glycerol in the presence of 40 nM (Sld5 and Tof2) or 50 nM (Dna2) fluorescein-labeled peptide. For Dna2 peptide, each data point is the mean of three independent experiments and curve fitting to the experimental data was performed in pro Fit 6.2 (QuantumSoft) using a Levenberg-Marquardt fitting algorithm in combination with a Gaussian error distribution analysis.

[2] = molecular target: the molecule itself; assay: SEC-MALS; 100 μl at 2 mg/ml on Superdex S200 HR 10/300 in 20 mM HEPES pH 7.2, 160 mM NaCl, 0.5 ml/min
CMG helicase = assay: Co-purification with CMG helicase from yeast cell extracts; type: cell-based, budding yeast; conditions: extracts of S phase yeast cells; immunoprecipitation, immunoblotting
Description: (D) Cultures of ctf4-4E MCM4-9MYC (YFV13) and MCM4-9MYC control cells (YSS75) were synchronized in G1-phase at 30°C and then released into S phase for 20 min. The Mcm4-9MYC was isolated from cell extracts by immunoprecipitation and the associated proteins monitored by immunoblotting. (E) ctf4-4E is synthetic lethal with mrc1Δ. The cells were processed as in Figure 1A, and the photos in the lower images were taken after 20 hr growth at 30°C (the scale bars represent 50 μm). See also Figure S2. TEXT PRINTED IN THE PICTURE: (C) Ctf4-4E (471-927): 162 kDa
as §1

Molecule: nuclease/helicase Dna2: multi-functional nuclease/helicase Dna2, expressed in yeast cells
- co-purification with Ctf4 (in words) (Ctf4): co-purified with Ctf4

Molecule: NC(=O)NO [hydroxyurea]
- sensitivity to hydroxyurea, ctf4-3E cells (in words) ([1]; ctf4-3E cells compared with ctf4Δ, Figure 5F): do not share the sensitivity of ctf4Δ cells
- sensitivity to hydroxyurea, pol1-4A cells (in words) ([1]; pol1-4A cells, in contrast to ctf4Δ, Figure 1B): does not cause sensitivity

Molecule: CC[C@H](C)[C@H](NC(=O)[C@H](CC(=O)O)NC(=O)[C@H](CC(=O)O)NC(=O)[C@H](CC(C)C)NC(=O)[C@@H](NC(=O)[C@H](CC(=O)O)NC(=O)[C@H](CC(=O)O)NC(=O)[C@@H](NC(=O)[C@H](CC(N)=O)NC(=O)[C@H](CCCNC(=N)N)NC(=O)[C@H](CC(C)C)NC(=O)[C@@H](N)CO)[C@@H](C)CC)[C@@H](C)CC)C(=O)N[C@@H](CCC(=O)O)C(=O)NCC(=O)N[C@@H](CC(=O)O)C(=O)N[C@@H](CC(C)C)C(=O)N[C@H](C(=O)O)[C@@H](C)O [Dna2 peptide (207-223)] (H-SLRNIDDILDDIEGDLT-OH)
- Kd (Ctf4 471-927 (Ctf4CTD)): 229 µM

B1: Ctf4-4E 471–927 (domain or fragment, budding yeast, UniProt Q01454 471-927, looked up)
chain: T1 sequence (Q01454 471-927) with L397E, A401E, A427E, I431E
notes: also called Ctf4CTD 4E mutant protein; source: purified protein
- stoichiometry N [2]: 3

B2: Ctf4 471–927 (domain or fragment, budding yeast, UniProt Q01454 471-927, looked up)
chain: T1 sequence (Q01454 471-927)
notes: also called Ctf4CTD; source: purified Ctf4CTD protein
- stoichiometry N [2]: 3

B3: tagged form of Tof2: tagged form of Tof2 expressed in budding yeast cells (protein)
chain: MIKMWRLQIVLVPPSAQDIITFLEARLNTPQSVSPMVQYNEDIITHNNSINNCSDPSPTSPSSQNSIQSNRSSDFINYLPNCKKFLHFTDGDNTLLQLSNEILTKFDRLYPNFKESIEIVSLQDRHGCDLDSEFIIKDVFENDGVVLVILKDELDWSRNQHISLLQLARQRRRQDNKPSTKSIVTEKRKKISKEDLSSISNKDTMHLIAKSSLKNNFINKSRVSTPLMNEILPLASKYDALNKEKCPMPLTSTVVASNVHKDVKDHARAKEGVVTQGSDNNKENIPSSTQQQKNDGAKRAESKDLDLLRNSSEDADYEPADENSPQISFDSIDTDFQLSTTSHTNSDMHIQYSNPSSGAHSPRKSSLEIKVQNKKGDDLPLNDKDIGENCRRIEAFSDEEDFNETDNDRADSFINNSKKASMGFRDINSDLDSVSFNSDIENAVQSTQSTKNVVSPPFFPEKELNNRLHQSQGKEALFRLVEKEFPDKSLGAASSTSHAKDVKIQETIRKLNRFKPTGETKVQKRNSITEPYYGKFGIMKKDKPKSITSKGVSLETKHFDDPNTIISGEKFAKFGKIKVKRKTDDVGSKVIEFKRKRNMGNRSLKDIFANAGKPPNAASTIKVVKLMRDPVDNSKDKVEATSNSTAQEQEQVSPKLPVMNSTPGKRKNGQAIPSSLERTPQLKKVKVTRSHSSPSSSSSMSLESSLDSSSSDDSDDDSDSRNVQVKKINFKTSHGPAGNSNGKPMLDVDDNEINTKKYQTPKYVESDEDDQ
modifications: left off: ProteinA, end not stated, kept
notes: tagged form of Tof2 expressed in budding yeast cells
- association with CMG helicase (in words) (CMG helicase): co-purified with the CMG helicase during S phase
- co-purification with Ctf4 (in words) (Ctf4): co-purified with Ctf4 in both G1-phase and S phase

B4: Ctf4-I901E: Ctf4 with glutamate mutation of I901 (protein)
chain: MVSVIDKLVFDFGGKTLVSLAPDNNTLCVANKNGLTKILKTNNPEEEPETLDSSKLVSSIKCYSNSHFLMTTMQGDALRYNIDSSQEELLARFALPLRDCCVIHSGKMAVFGGDDLELILLELDDETHKKHAIKIDEQVSQISYNSQMNILAVSMINGKVQIFSLTSTIPNKVHELNDYIVANSYDDTHRDKILSNMMDDIDKDNDNDLSETADPDENNVADPEFCAANRICTRVAWHPKGLHFALPCADDTVKIFSIKGYSLQKTLSTNLSSTKAHFIDLQFDPLRGTYIAAVDLNNKLTVWNWETSEIHYTREFKRKITNIAWKIQADSKTLDLVLGTWSGSIAIVQNLAESVVSNIPDQSVAESSTKHGLFVDSESDLENLEGNDDINKSDKLFSDITQEANAEDVFTQTHDGPSGLSEKRKYNFEDEEDFIDDDDGAGYISGKKPHNEHSYSRVHKTHSFPISLANTGKFRYMPFSPAGTPFGFTDRRYLTMNEVGYVSTVKNSEQYSITVSFFDVGRFREYHFEDLFGYDLCFLNEKGTLFGQSKTGQIQYRPHDSIHSNWTKIIPLQAGERITSVAATPVRVIVGTSLGYFRSFNQFGVPFAVEKTSPIVALTAQNYRVFSVHYSQFHGLSYSLSELGTSSKRYYKRECPLPMSLPNINSDMKKDANLDYYNFNPMGIKSLFFSSYGDPCIFGSDNTLLLLSKWRSPEESKWLPILDSNMEIWKMSGGKETTDIHVWPLALAYDTLNCILVKGKHIWPEFPLPLPSEMEIRMPVFVKSKLLEENKAILNKKNEIGADTEAEEGEEDKEIQIPVSMAAEEEYLRSKVLSELLTDTLENDGEMYGNENEVLAALNGAYDKALLRLFASACSDQNVEKALSLAHELKQDRALTAAVKESERAELPSLVKKINNIREARYEQQLK
- association with CMG helicase (in words) (CMG helicase): unable to interact with the CMG helicase
